Results published in publication PMC6742228.

Molecular target: A/Puerto Rico/8/1934 (H1) HA (influenza A virus A/Puerto Rico/8/1934 (H1N1)) (UniProt P03452)

| Substance | HA-pseudovirus neutralization titer (IC95), 293T cells | Plaque reduction titer (IC50), replicating virus on MDCK cells |
| --- | --- | --- |
| MAb C179 (antibody) | 0.31 µg/mL | 27.7 µg/mL |
| MAb CR6261 (antibody) | 0.09 µg/mL | – |
| MAb FI6 (antibody) | 0.11 µg/mL | 3.7 µg/mL |
